According to patent US20240294622A1 (SUZHOU TRANSCENTA THERAPEUTICS, published 2024):

T1: DAN-his (Sinobiological) (human, UniProt P41271 17-181, limits assumed)
T1 construct: also called DAN (Sinobiological); human DAN-his
T1 sequence (looked up): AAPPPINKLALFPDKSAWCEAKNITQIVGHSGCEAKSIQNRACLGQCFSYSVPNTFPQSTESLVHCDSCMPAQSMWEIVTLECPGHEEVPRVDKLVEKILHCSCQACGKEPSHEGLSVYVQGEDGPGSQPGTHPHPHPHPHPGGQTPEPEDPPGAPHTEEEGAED

T2: HGREM1-His (ACRO) (human, UniProt O60565 25-184)
T2 construct: Lys25-Asp184 of NP_037504 with C-terminal polyhistidine tag (ACRO GR1-H52H3); they are put here; also called hGREM1 (ACRO); human gremlin (ACRO)
T2 sequence: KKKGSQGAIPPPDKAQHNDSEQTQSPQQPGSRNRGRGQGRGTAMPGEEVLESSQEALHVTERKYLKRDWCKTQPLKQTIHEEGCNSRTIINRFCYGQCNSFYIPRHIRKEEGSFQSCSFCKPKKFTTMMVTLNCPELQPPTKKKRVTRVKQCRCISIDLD

T3: human COCO (R&D) (human, UniProt Q8N907 23-189, limits assumed)
T3 sequence (looked up): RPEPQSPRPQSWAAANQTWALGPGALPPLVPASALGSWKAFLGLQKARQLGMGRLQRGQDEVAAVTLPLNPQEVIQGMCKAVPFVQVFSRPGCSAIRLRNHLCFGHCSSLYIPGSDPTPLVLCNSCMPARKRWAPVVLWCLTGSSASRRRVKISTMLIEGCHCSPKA


How the values were obtained:
DAN-his (Sinobiological) = biological target: T1, DAN-his (Sinobiological); assay: ELISA on coated DAN-his; unit from the axis Ab(nM)
Experimental: Clear polystyrene plates (BEAVER) were coated with 100 μl/well of a 0.5 μg/ml human gremlin (ACRO) and DAN (Sinobiological) in high pH coating buffer overnight at 4° C. Then the plates were washed once on an automatic plate washer using PBS+0.1% Tween 20 (Sigma). 100 μl of block solution consisting of PBS+1% BSA+1% normal goat serum+0.5% Tween 20 (Sigma) was added to each well and incubated at room temperature for 2 hours. Then 100 ul of antibodies (hybridoma or chimeric antibody 36F5, chimeric antibody 67G11, chimeric antibody 42B9) in antibody dilution buffer containing PBS+1% BSA+1% normal goat serum+0.01% Tween 20 starting from 2 μg/ml (13.33 nM) and then 4 fold serial dilution were added to each well of the plate and incubated for 1 hours at room temperature. Afterward the plates were washed three times with 200 ul of PBS+0.1% Tween20 followed by adding 100 μl/well 1:10000 Goat anti mouse IgG-HRP or mouse anti-human IgG-HRP (abcam), and incubate for 1 hour at room temperature. They were then washed 3× with PBS+0.1% Tween20. Finally, 100 μl/well of TMB (InnoReagents) was added to each well and after 2 minutes add 50 ul of stop solution to each well. The plates were read on a Multiscan FC microplate reader (Thermo Scientific) at 450 nm.

HGREM1-His (ACRO) [1] = biological target: T2, HGREM1-His (ACRO); assay: ELISA, coated hGREM1 (ACRO)
HGREM1-His (ACRO) [2] = biological target: T2, HGREM1-His (ACRO); assay: competition ELISA, Gremlin-his binding to coated BMP7
human COCO (R&D) = biological target: T3, human COCO (R&D); assay: ELISA on coated human COCO (R&D, 0.5ug/ml), anti-mouse IgG-HRP
Experimental: In addition, the specificity of the binding of 14E3 and a benchmark antibody was assessed with ELISA. Briefly, clear polystyrene plates (BEAVER) were coated with 100 μl/well of a […] hGREM1 (ACRO), or human gremlin-2 (R&D), human COCO (R&D) and human DAN protein (R&D) in high pH coating buffer overnight at 4° C. Then the plates were washed once on an automatic plate washer using PBS+0.1% Tween 20 (Sigma). 100 μl of block solution consisting of PBS+1% BSA+1% normal goat serum+0.5% Tween 20 (Sigma) was added to each well and incubated at room temperature for 2 hours. Then 100 ul of antibodies in antibody dilution buffer containing PBS+1% BSA+1% normal goat serum+0.01% Tween 20 starting from 2 μg/ml and then 5 fold serial dilution were added to each well of the plate and incubated for 1 hours at room temperature. Afterward the plates were washed three times with 200 ul of PBS+0.1% Tween20 followed by adding 100 μl/well 1:10000 Goat anti mouse IgG-HRP (Abcam), and incubate for 1 hour at room temperature. They were then washed 3× with PBS+0.1% Tween20. Finally, 100 µl/well of TMB (Pierce) was added to each well and after 5 minutes add 50 ul of stop solution to each well. The plates were read on a Multiscan FC microplate reader (Thermo Scientific) at […].

Binder | EC50 (DAN-his (Sinobiological)) [pM] | EC50 (HGREM1-His (ACRO) [1]) [ng/mL] | maximal blocking percentage (HGREM1-His (ACRO) [2]) [%] | binding result (human COCO (R&D))
36F5 (antibody, V domains shown, mouse hybridoma antibody; also called hybridoma 36F5) VH: QVQLQQSGAELARPGASVKLSCKASGYSFTSSGIGWVKQRSGQGLEWIGEIYPRSGNTYNNEKFKGKATLTADKSSSTVYMELRSLTSEDSAVYFCVREAYSHHYYAMDYWGQGTSVTVFS VL: DVLMTQTPLSLPVSLGGQASISCRSSQSLLHSNGNTYLEWYLQKPGQSPKLLIYKVSNRFSGVPDRLSGSGSGTDFTLKISRVEAEDLGVYYCFQGSHVPFTFGSGTKLEIN | 30.9 | 5.87 | ≥ 50 | –
14E3 (antibody, V domains shown, mouse hybridoma antibody; also called hybridoma 14E3; anti-gremlin1 antibody 14E3) VH: QIQLVQSGPELKKPGETVKISCKTSGSTFTTYGMAWMKQAPGKGLTWMGWINTLSGEPTYADDFKGRFAFSLKTSANTAYLQINNLKNEDAATYFCAREPMDYWGQGTSVIVSS VL: not shown | – | 13.6 | – | no binding (tested: 1 ug/ml)
